In the data set the test system is Escherichia coli TOP10. Kind of data set: shrunken log2 fold change of peptide-encoding DNA abundance (4.5 h post-induction vs induction); higher = less antimicrobial activity (less host growth inhibition). To be noted: time post-induction: 4.5 h; library: site-saturation at positions 5, 18, 19, 20.
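Also: peptides expressed intracellularly from a pBAD plasmid library in pooled LB shake-flask culture, induced with 0.3% L-arabinose, DNA abundance read by NGS, three biological replicates, DESeq2 with apeglm shrinkage.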

On to RRIRIRPPRLPRPRPRPVKHPRP, for which the “shrunken log2 fold change” value was -0.107. In the case of RRIRHRPPRLPRPRPRPDFAPRP, the “shrunken log2 fold change” value is -1.07. Take RRIRFRPPRLPRPRPRPNKFPRP: the “shrunken log2 fold change” value is -0.783. As for RRIRSRPPRLPRPRPRPTYSPRP, the “shrunken log2 fold change” value is -0.453. For RRIRWRPPRLPRPRPRPEIAPRP, the “shrunken log2 fold change” value was 0.355.

With RRIRLRPPRLPRPRPRPQQRPRP, the “shrunken log2 fold change” value was -0.299. With RRIRPRPPRLPRPRPRPTVSPRP the figure was 0.433. As for RRIRRRPPRLPRPRPRPWRSPRP, the figure is 0.181. As for RRIRLRPPRLPRPRPRPNAQPRP, the “shrunken log2 fold change” value is -0.0471. For RRIRWRPPRLPRPRPRPCCNPRP, the “shrunken log2 fold change” value is -0.0508. With RRIRHRPPRLPRPRPRPVWFPRP the figure was 0.0927; with RRIRERPPRLPRPRPRPRCGPRP, 0.146; with RRIRHRPPRLPRPRPRPRPEPRP, -0.165. In the case of RRIRGRPPRLPRPRPRPKNYPRP, the “shrunken log2 fold change” value stood at 0.175. On to RRIRNRPPRLPRPRPRPGWWPRP, for which the “shrunken log2 fold change” value is -0.0419. Regarding RRIRSRPPRLPRPRPRPAHNPRP, the “shrunken log2 fold change” value turned out to be 0.133. In the case of RRIRQRPPRLPRPRPRPCQYPRP, the “shrunken log2 fold change” value was -0.00191. RRIRNRPPRLPRPRPRPLTRPRP: the “shrunken log2 fold change” value came out at 0.0454. As to RRIRYRPPRLPRPRPRPCLQPRP, the “shrunken log2 fold change” value was -0.00663.

Regarding RRIRLRPPRLPRPRPRPNNSPRP, the “shrunken log2 fold change” value is -0.952. As for RRIRNRPPRLPRPRPRPYITPRP, the “shrunken log2 fold change” value was -0.292.

Turning to RRIRGRPPRLPRPRPRPCMIPRP, the “shrunken log2 fold change” value came out at 0.235. In the case of RRIRKRPPRLPRPRPRPHFCPRP, the “shrunken log2 fold change” value is -0.167. As for RRIRGRPPRLPRPRPRPYLTPRP, the “shrunken log2 fold change” value was -0.0518. Regarding RRIRERPPRLPRPRPRPKMNPRP, the “shrunken log2 fold change” value is -0.642. Regarding RRIRERPPRLPRPRPRPQGSPRP, the “shrunken log2 fold change” value was -0.107. For the sequence RRIRHRPPRLPRPRPRPRPWPRP, the “shrunken log2 fold change” value came to 0.0732. Take RRIRFRPPRLPRPRPRPVAYPRP: the “shrunken log2 fold change” value is -0.19. As for RRIRRRPPRLPRPRPRPFLLPRP, the figure is 0.0441; as for RRIRFRPPRLPRPRPRPFVRPRP, -0.0733; as for RRIRDRPPRLPRPRPRPMCAPRP, 0.0829. With RRIRLRPPRLPRPRPRPEWWPRP the figure was 0.124; with RRIRWRPPRLPRPRPRPVLIPRP, -0.0326. Consider RRIRKRPPRLPRPRPRPNSVPRP, for which the “shrunken log2 fold change” value was 0.0305.

Regarding RRIRLRPPRLPRPRPRPIWMPRP, the “shrunken log2 fold change” value turned out to be 0.0146. RRIRKRPPRLPRPRPRPAMVPRP: the “shrunken log2 fold change” value was determined as 0.87. As for RRIRCRPPRLPRPRPRPIRMPRP, the “shrunken log2 fold change” value is -0.339. On to RRIRHRPPRLPRPRPRPADHPRP, for which the “shrunken log2 fold change” value amounted to 0.134. On to RRIRGRPPRLPRPRPRPLTVPRP, for which the “shrunken log2 fold change” value was found to be 0.48. Take RRIRARPPRLPRPRPRPLAGPRP: the “shrunken log2 fold change” value is 2.52. With RRIRRRPPRLPRPRPRPMWRPRP, the “shrunken log2 fold change” value was found to be 0.312. Take RRIRVRPPRLPRPRPRPPMNPRP: the “shrunken log2 fold change” value was -0.205.

For RRIRSRPPRLPRPRPRPAECPRP, the “shrunken log2 fold change” value is 0.0306. As for RRIRFRPPRLPRPRPRPCYCPRP, the “shrunken log2 fold change” value is -0.064. As for RRIRGRPPRLPRPRPRPGDDPRP, the “shrunken log2 fold change” value came out at 0.911.

As for RRIRMRPPRLPRPRPRPHIWPRP, the “shrunken log2 fold change” value was -0.0244. As to RRIRMRPPRLPRPRPRPLCGPRP, the “shrunken log2 fold change” value came out at 0.606. As for RRIRPRPPRLPRPRPRPYMGPRP, the “shrunken log2 fold change” value is -0.659.

As for RRIRNRPPRLPRPRPRPYIVPRP, the “shrunken log2 fold change” value was -0.314. With RRIRARPPRLPRPRPRPKKTPRP, the “shrunken log2 fold change” value was -0.0919. Turning to RRIRTRPPRLPRPRPRPGDIPRP, the “shrunken log2 fold change” value is -0.119. As for RRIRPRPPRLPRPRPRPIVDPRP, the “shrunken log2 fold change” value is 0.0804. For RRIRIRPPRLPRPRPRPMNCPRP, the “shrunken log2 fold change” value worked out at 0.0904.

With RRIRFRPPRLPRPRPRPSNRPRP, the “shrunken log2 fold change” value is -0.381. Turning to RRIRTRPPRLPRPRPRPFSNPRP, the “shrunken log2 fold change” value was -0.405.

RRIRPRPPRLPRPRPRPMTPPRP: the “shrunken log2 fold change” value amounted to 0.165. In the case of RRIRCRPPRLPRPRPRPYYTPRP, the “shrunken log2 fold change” value was 0.00417.

For the sequence RRIRFRPPRLPRPRPRPQNAPRP, the “shrunken log2 fold change” value is 0.0534. In the case of RRIRFRPPRLPRPRPRPDEIPRP, the “shrunken log2 fold change” value is -0.022. On to RRIRYRPPRLPRPRPRPAWTPRP, for which the “shrunken log2 fold change” value was -0.156. Turning to RRIRVRPPRLPRPRPRPDWDPRP, the “shrunken log2 fold change” value was 0.0311.

Take RRIRMRPPRLPRPRPRPQNNPRP: the “shrunken log2 fold change” value is -0.13. As to RRIRMRPPRLPRPRPRPALTPRP, the “shrunken log2 fold change” value amounted to 0.433. As to RRIRLRPPRLPRPRPRPGREPRP, the “shrunken log2 fold change” value amounted to 0.231. For the sequence RRIRMRPPRLPRPRPRPAEVPRP, the “shrunken log2 fold change” value was 0.411. Regarding RRIRPRPPRLPRPRPRPRTVPRP, the “shrunken log2 fold change” value is 0.322. With RRIRFRPPRLPRPRPRPLYHPRP the figure was -0.859; with RRIRRRPPRLPRPRPRPFAAPRP, 0.98. In the case of RRIRGRPPRLPRPRPRPKVFPRP, the “shrunken log2 fold change” value was -0.00639.

Regarding RRIRARPPRLPRPRPRPFLGPRP, the “shrunken log2 fold change” value was 0.0605. Turning to RRIRRRPPRLPRPRPRPDDSPRP, the “shrunken log2 fold change” value is -0.0232. Consider RRIRNRPPRLPRPRPRPAERPRP, for which the “shrunken log2 fold change” value was -0.117. As to RRIRFRPPRLPRPRPRPDHPPRP, the “shrunken log2 fold change” value is -0.593.

Take RRIRDRPPRLPRPRPRPVRMPRP: the “shrunken log2 fold change” value stood at 0.059. As for RRIRKRPPRLPRPRPRPFQTPRP, the “shrunken log2 fold change” value was found to be 0.12. For the sequence RRIRKRPPRLPRPRPRPEVCPRP, the “shrunken log2 fold change” value came out at 0.0227. Turning to RRIRKRPPRLPRPRPRPFVIPRP, the “shrunken log2 fold change” value is -0.363. As for RRIRGRPPRLPRPRPRPTDQPRP, the “shrunken log2 fold change” value worked out at 0.846. On to RRIRNRPPRLPRPRPRPQLCPRP, for which the “shrunken log2 fold change” value is -0.00259. As for RRIRWRPPRLPRPRPRPSNYPRP, the figure is -0.707.

Consider RRIRDRPPRLPRPRPRPVGFPRP, for which the “shrunken log2 fold change” value was determined as 0.859. For the sequence RRIRWRPPRLPRPRPRPLQKPRP, the “shrunken log2 fold change” value was determined as 1.73. With RRIRCRPPRLPRPRPRPCNHPRP, the “shrunken log2 fold change” value was -0.227. RRIRVRPPRLPRPRPRPEMYPRP: the “shrunken log2 fold change” value was -0.19. As for RRIRYRPPRLPRPRPRPNWIPRP, the figure is -0.312; as for RRIRQRPPRLPRPRPRPAPFPRP, 0.613. For RRIRSRPPRLPRPRPRPCHQPRP, the “shrunken log2 fold change” value is -0.0637. Consider RRIRQRPPRLPRPRPRPLIVPRP, for which the “shrunken log2 fold change” value was -0.149. With RRIRVRPPRLPRPRPRPERWPRP the figure was 0.615; with RRIRMRPPRLPRPRPRPPKLPRP, 0.343; with RRIRTRPPRLPRPRPRPNIKPRP, -0.828.

For RRIRRRPPRLPRPRPRPHLWPRP, the “shrunken log2 fold change” value worked out at 0.25. In the case of RRIRPRPPRLPRPRPRPYMIPRP, the “shrunken log2 fold change” value was -0.398. For the sequence RRIRLRPPRLPRPRPRPHMEPRP, the “shrunken log2 fold change” value is -0.101.

On to RRIRVRPPRLPRPRPRPWTLPRP, for which the “shrunken log2 fold change” value is 0.113. For RRIRDRPPRLPRPRPRPIIFPRP, the “shrunken log2 fold change” value was -0.00292. As for RRIRRRPPRLPRPRPRPHMNPRP, the “shrunken log2 fold change” value was -0.315. In the case of RRIRRRPPRLPRPRPRPMNCPRP, the “shrunken log2 fold change” value is -0.0277.

For RRIRERPPRLPRPRPRPAMMPRP, the “shrunken log2 fold change” value is -0.163. Take RRIRERPPRLPRPRPRPHMPPRP: the “shrunken log2 fold change” value is -0.197. As for RRIRVRPPRLPRPRPRPEQPPRP, the figure is 0.515; as for RRIRGRPPRLPRPRPRPLAFPRP, 0.487.

Take RRIRPRPPRLPRPRPRPIRHPRP: the “shrunken log2 fold change” value was -0.146. In the case of RRIRVRPPRLPRPRPRPNAQPRP, the “shrunken log2 fold change” value amounted to 0.24. As for RRIRNRPPRLPRPRPRPEWVPRP, the figure is 0.0314. Turning to RRIRIRPPRLPRPRPRPVAVPRP, the “shrunken log2 fold change” value was -0.104. On to RRIRSRPPRLPRPRPRPSSSPRP, for which the “shrunken log2 fold change” value is -0.353.

For RRIRIRPPRLPRPRPRPGFGPRP, the “shrunken log2 fold change” value was 0.28. Regarding RRIRPRPPRLPRPRPRPRHFPRP, the “shrunken log2 fold change” value was found to be 0.168. As to RRIRNRPPRLPRPRPRPIISPRP, the “shrunken log2 fold change” value is 0.0108. RRIRRRPPRLPRPRPRPRNLPRP: the “shrunken log2 fold change” value is -0.0397.

With RRIRFRPPRLPRPRPRPVTHPRP, the “shrunken log2 fold change” value was -0.303.

In the case of RRIRLRPPRLPRPRPRPAQMPRP, the “shrunken log2 fold change” value was found to be 0.122. In the case of RRIRNRPPRLPRPRPRPDRTPRP, the “shrunken log2 fold change” value was -0.161.

Take RRIRNRPPRLPRPRPRPDHSPRP: the “shrunken log2 fold change” value is -0.22. With RRIRCRPPRLPRPRPRPYEGPRP the figure was -0.103; with RRIRVRPPRLPRPRPRPRRWPRP, 0.334. With RRIRMRPPRLPRPRPRPIMTPRP, the “shrunken log2 fold change” value is -0.104. As to RRIRRRPPRLPRPRPRPNEWPRP, the “shrunken log2 fold change” value was found to be 0.0626. Turning to RRIRFRPPRLPRPRPRPAHHPRP, the “shrunken log2 fold change” value is -0.152.

Consider RRIRERPPRLPRPRPRPVYKPRP, for which the “shrunken log2 fold change” value was -0.348. As for RRIRCRPPRLPRPRPRPNLHPRP, the figure is -0.619; as for RRIRLRPPRLPRPRPRPPYWPRP, 0.106; as for RRIRMRPPRLPRPRPRPLCCPRP, 0.104.

Take RRIRRRPPRLPRPRPRPHMIPRP: the “shrunken log2 fold change” value was -0.13.

Values taken from the supplement of paper PMC9112550, “Optimization of the antimicrobial peptide Bac7 by deep mutational scanning” (BMC Biology, 2022).
